The values that follow are results of earlier work, collected in PMC4884208.

Among the test systems are Tyr117; Tyr28; Tyr75; Tyr73; Tyr22; Tyr25; Tyr52; Tyr113.
Holding throughout (assay): UV-vis
In the next data set the target is Tyr36 (UniProt position 55, FHTSGYDTQAI). The conditions noted are these: 25.0 C, 0.5 M Gdn-HCl.
A further data set addresses Tyr50 (UniProt position 69, NDSTEYGLFQI). The conditions noted are these: 25.0 C, 0.5 M Gdn-HCl.
Another data set concerns the target Tyr18 (UniProt position 37, KDLKGYGGVSL). The note with it: 25.0 C, 0.5 M Gdn-HCl.
The next data set concerns the target Tyr103 (UniProt position 122, KVGINYWLAHK). The note with it: 25.0 C, 0.5 M Gdn-HCl.

Regarding “Vipoxin neurotoxic phospholipase A2 (basic PLA2 subunit of vipoxin) (Vipera ammodytes meridionalis (inferred; organism not stated in the article))”, the pKa (in general, the negative logarithm of the acid dissociation constant) in the data set with Tyr117 is 10.45; with Tyr28, 12.17; in the data set with Tyr75 it was 10.45; with Tyr73, 13.23; with Tyr22 it was 10.45; in the data set with Tyr25, 13.23. Further, the pKa with Tyr52 and in the data set on Tyr113 was 12.17 each time.
With alpha-lactalbumin (Bos taurus), the pKa with Tyr36 (alkaline-denatured (D) state) is given as 10.3; in the data set with Tyr36 (native (N) state), 11.8; with Tyr50 (alkaline-denatured (D) state), 10.3; with Tyr50 (native (N) state), 12.7; in the data set with Tyr18 (alkaline-denatured (D) state), 10.3; with Tyr18 (native (N) state), 11.8. Besides, the pKa is 10.3 with Tyr103 (alkaline-denatured (D) state) and 10.5 with Tyr103 (native (N) state).
